Reference: patent publication US20070184522A1, “Cell death modulation via antagonists of Fasl and Fas activation” (University of Pittsburgh of the Commonwealth System of …, priority 2004, published 2007)
“Also recorded” adds a separate entry of the source.

How the values were obtained:
[1] = test system: endogenous Fas from Jurkat and Hepa 1-6 cells; assay: Immunoprecipitation with anti-Fas antibody after adding AlphaMet proteins to Jurkat and Hepa 1-6 cells, Western blot with anti-His; format: binding; conditions: proteins added to Jurkat cells and Hepa 1-6 cells
Description: The Met alpha but not beta chain binds to Fas (FIG. 1a). Various regions of the mouse Met cDNA corresponding to the alpha chain or the extra-cellular portion of the Met beta chain were cloned into expression vectors (pCRT7 TOPO/AlphaMet or pCRT7 TOPO/beta chain) and subjected to in vitro transcription/translation by a rabbit reticolucyte lysate translation system. Empty vector was included in each experiment as a control. The expressed proteins were labeled with ^35S-Methionine. Pull down assays were performed using Fas-Fc, a chimeric molecule which lacks the interacellular cytoplasmic domain and protein-A agarose as described in Wang et al., 2002. […] FIG. 1d depicts the amino acid sequence alignment of alpha chain with FasL, determined using the CLUSTALW, SIM+LALNVIEW, and ALIGN at ExPASy Proteomic Tools (available on the internet at us.expresly.org/tools). […] Recombinant His-tagged AlphaMet or its mutant version were expressed in E. coli, purified with chromatography, and subjected to Fas-Fc (lanes labeled Fas) or control IgG pull down experiments, and detected by Western blot using anti-His antibody that recognizes C-terminal His. […] After washing the wells, anti-human […]-HRP conjugates (1:20,000) were added to detect the bound Fas-Fc using TMD dye and the OD value was determined at a wavelength of 450 nm. […]

[2] = test system: Fas self-assembly in Hepa 1-6 cells; assay: FRET assay of CFP-Fas/YFP-Fas in transfected Hepa 1-6 cells; format: cell-based; conditions: Hepa 1-6 cells, CFP-Fas and YFP-Fas, FasL with AlphaMet
Chain of Fas self-assembly in Hepa 1-6 cells (P25445 26-190 limits assumed): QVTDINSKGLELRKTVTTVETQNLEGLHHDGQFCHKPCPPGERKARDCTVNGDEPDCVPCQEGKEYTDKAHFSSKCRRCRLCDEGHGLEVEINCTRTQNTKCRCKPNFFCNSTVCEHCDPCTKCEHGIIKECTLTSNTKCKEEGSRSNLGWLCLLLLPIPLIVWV
Description: FIG. 3a presents data collected from Jurkat cells (1×10^6) treated with 2 μg/ml of Fas Ligand with or without AlphaMet for 30 minutes on ice. Cells were washed with PBS twice and then incubated with 2 mM of DTSSP in PBS for 30 minutes. The crosslinking process was stopped by 20 mM of Tris (pH 7.5) for another 30 minutes. Cells were spun down and washed with PBS twice and lyzed in RIPA buffer. Cell lysates were subjected to SDS-PAGE under non-reducing or reducing conditions (FIG. 3b) and Western blot analysis using the mouse monoclonal antibody against human Fas. FIG. 3c depicts the quantification of the data in FIG. 3a by densitometry. The data are the mean and SE from three different independent crosslinking and Western blot experiments. […] Frame A: Acceptor CFP-Fas image; Frame B: Acceptor pre-bleach CFP-Fas image; Frame C: Acceptor post-bleach image. Frame D: Donor YFP-Fas image; Frame E: Donor pre-bleach image; Frame F: Donor pre-bleach image. […] Cells were fixed and analyzed by fluorescence microscopy. […]
FRET assay. […] Fret efficiency (E) was calculated as FRETeff=(Dpost−Dpre)/Dpost (Dpost and Dpre are the mean emission intensity […] YFP bleaching).
Fluorescence protein tagged Fas molecules and Hepa 1-6 cells were used for these experiments. […] In these experiments the percent of Fas capping was also determined.

B1: alpha subunit of Met (AlphaMet), amino acid residues 1 to 306, His-tagged (receptor, mouse)
chain: MKAPTVLAPGILVLLLSLVQRSHGECKEALVKSEMNVNMKYQLPNFTAETPIQNVVLHGHHIYLGATNYIYVLNDKDLQKVSEFKTGPVLEHPDCLPCRDCSSKANSSGGVWKDNINMALLVDTYYDDQLISCGSVNRGTCQRHVLPPDNSADIQSEVHCMFSPEEESGQCPDCVVSALGAKVLLSEKDRFINFFVGNTINSSYPPGYSLHSISVRRLKETQDGFKFLTDQSYIDVLPEFLDSYPIKYIHAFESNHFIYFLTVQKETLDAQTFHTRIIRFCSVDSGLHSYMEMPLECILTEKRRKRHHHHHH
With B1 the “co-precipitation with anti-Fas” value [1] was “could be co-precipitated with anti-Fas” and the “FasL-induced FRET” value [2] was “no significant FRET could be detected; also recorded: inhibited the FasL-induced FRET phenomenon”.
